This note sets out measurements from article PMC10786891, “Massively parallel profiling of RNA-targeting CRISPR-Cas13d”.

Where a chain is given by its changes, count along the chain named. Names may count otherwise.

The chains are these.
B1: target 1 C2A,C4G (mixed)
RNA 1: CACCCGUGCAAAAAUGCAGGGGUCUAAAACUGAGCGGAUAACCUCUCUAUGG
RNA 2: GGGAAUGGAUCCACAUCUACGAAUUCGUACCAUAGAGAGGUUAUCCGGUAACCGAGAUCGGAAGAGCACACGU
B2: target 1 insC 3' of 18,insA 3' of 10 (mixed)
RNA 1: B1 RNA 1
RNA 2: GGGAAUGGAUCCACAUCUACGAAUUCGUACCAUACGAGAGGUUAAUCCGCUCACCGAGAUCGGAAGAGCACACGU
B3: target 1 insG 3' of 4,insU 3' of 1 (mixed)
RNA 1: B1 RNA 1
RNA 2: GGGAAUGGAUCCACAUCUACGAAUUCGUACCAUAGAGAGGUUAUCCGCGUCAUCCGAGAUCGGAAGAGCACACGU
B4: target 2 MT 5'PFS GCG 3'PFS CAA (mixed)
RNA 1: CACCCGUGCAAAAUUGCAGGGGUCUAAAACCUUCUCCAAAUUGUUUCAUCCU
RNA 2: GGGAAUGGAUCCACAUCUACGAAUUCGCGAGGAUGAAACAAUUUGGAGAAGCAAAGAUCGGAAGAGCACACGU
B5: target 2 MT 5'PFS AGC 3'PFS UAC (mixed)
RNA 1: B4 RNA 1
RNA 2: B4 RNA 2 with G27A, C28G, G29C, C52U, A54C
B6: target 2 MT 5'PFS GAG 3'PFS UUG (mixed)
RNA 1: B4 RNA 1
RNA 2: B4 RNA 2 with C28A, C52U, A53U, A54G
B7: target 2 MT 5'PFS GGG 3'PFS AAG (mixed)
RNA 1: B4 RNA 1
RNA 2: B4 RNA 2 with C28G, C52A, A54G
B8: target 2 MT 5'PFS GAG 3'PFS UUA (mixed)
RNA 1: B4 RNA 1
RNA 2: B4 RNA 2 with C28A, C52U, A53U
B9: target 2 MT 5'PFS AGC 3'PFS AGC (mixed)
RNA 1: B4 RNA 1
RNA 2: B4 RNA 2 with G27A, C28G, G29C, C52A, A53G, A54C
B10: target 2 MT 5'PFS GUU 3'PFS AGA (mixed)
RNA 1: B4 RNA 1
RNA 2: B4 RNA 2 with C28U, G29U, C52A, A53G
B11: target 2 MT 5'PFS CUC 3'PFS UAA (mixed)
RNA 1: B4 RNA 1
RNA 2: B4 RNA 2 with G27C, C28U, G29C, C52U
B12: target 2 MT 5'PFS GCU 3'PFS AUA (mixed)
RNA 1: B4 RNA 1
RNA 2: B4 RNA 2 with G29U, C52A, A53U
B13: target 2 MT 5'PFS AGC 3'PFS AGU (mixed)
RNA 1: B4 RNA 1
RNA 2: B4 RNA 2 with G27A, C28G, G29C, C52A, A53G, A54U
B14: target 2 MT 5'PFS UCA 3'PFS UCA (mixed)
RNA 1: B4 RNA 1
RNA 2: B4 RNA 2 with G27U, G29A, C52U, A53C
B15: target 2 MT 5'PFS GUU 3'PFS AGG (mixed)
RNA 1: B4 RNA 1
RNA 2: B4 RNA 2 with C28U, G29U, C52A, A53G, A54G
B16: target 2 MT 5'PFS GAG 3'PFS UAA (mixed)
RNA 1: B4 RNA 1
RNA 2: B4 RNA 2 with C28A, C52U
B17: target 2 MT 5'PFS AGC 3'PFS AGA (mixed)
RNA 1: B4 RNA 1
RNA 2: B4 RNA 2 with G27A, C28G, G29C, C52A, A53G
B18: target 2 MT 5'PFS GCG 3'PFS CAG (mixed)
RNA 1: B4 RNA 1
RNA 2: B4 RNA 2 with A54G
B19: target 2 MT 5'PFS GUU 3'PFS AGU (mixed)
RNA 1: B4 RNA 1
RNA 2: B4 RNA 2 with C28U, G29U, C52A, A53G, A54U
B20: target 2 MT 5'PFS CUC 3'PFS UAC (mixed)
RNA 1: B4 RNA 1
RNA 2: B4 RNA 2 with G27C, C28U, G29C, C52U, A54C
B21: target 2 MT 5'PFS GCU 3'PFS AUU (mixed)
RNA 1: B4 RNA 1
RNA 2: B4 RNA 2 with G29U, C52A, A53U, A54U
B22: target 2 MT 5'PFS AGC 3'PFS UAA (mixed)
RNA 1: B4 RNA 1
RNA 2: B4 RNA 2 with G27A, C28G, G29C, C52U
B23: target 2 MT 5'PFS CGG 3'PFS UAC (mixed)
RNA 1: B4 RNA 1
RNA 2: B4 RNA 2 with G27C, C28G, C52U, A54C
B24: target 2 MT 5'PFS CGG 3'PFS UAU (mixed)
RNA 1: B4 RNA 1
RNA 2: B4 RNA 2 with G27C, C28G, C52U, A54U
B25: target 2 MT 5'PFS CUC 3'PFS UAG (mixed)
RNA 1: B4 RNA 1
RNA 2: B4 RNA 2 with G27C, C28U, G29C, C52U, A54G
B26: target 2 MT 5'PFS CUC 3'PFS UAU (mixed)
RNA 1: B4 RNA 1
RNA 2: B4 RNA 2 with G27C, C28U, G29C, C52U, A54U
B27: target 2 MT 5'PFS GCU 3'PFS AUG (mixed)
RNA 1: B4 RNA 1
RNA 2: B4 RNA 2 with G29U, C52A, A53U, A54G
B28: target 2 MT 5'PFS AUG 3'PFS CGA (mixed)
RNA 1: B4 RNA 1
RNA 2: B4 RNA 2 with G27A, C28U, A53G
B29: target 2 MT 5'PFS GCU 3'PFS AUC (mixed)
RNA 1: B4 RNA 1
RNA 2: B4 RNA 2 with G29U, C52A, A53U, A54C
B30: target 2 MT 5'PFS GGG 3'PFS AAU (mixed)
RNA 1: B4 RNA 1
RNA 2: B4 RNA 2 with C28G, C52A, A54U
B31: target 2 MT 5'PFS AGC 3'PFS UAU (mixed)
RNA 1: B4 RNA 1
RNA 2: B4 RNA 2 with G27A, C28G, G29C, C52U, A54U
B32: target 2 MT 5'PFS CGG 3'PFS UAA (mixed)
RNA 1: B4 RNA 1
RNA 2: B4 RNA 2 with G27C, C28G, C52U
B33: target 2 MT 5'PFS GAG 3'PFS UAC (mixed)
RNA 1: B4 RNA 1
RNA 2: B4 RNA 2 with C28A, C52U, A54C
B34: target 2 MT 5'PFS AGC 3'PFS AGG (mixed)
RNA 1: B4 RNA 1
RNA 2: B4 RNA 2 with G27A, C28G, G29C, C52A, A53G, A54G
B35: target 2 MT 5'PFS GGG 3'PFS AAA (mixed)
RNA 1: B4 RNA 1
RNA 2: B4 RNA 2 with C28G, C52A
B36: target 2 MT 5'PFS GGG 3'PFS AAC (mixed)
RNA 1: B4 RNA 1
RNA 2: B4 RNA 2 with C28G, C52A, A54C

The data set concerns the target T1, EsCas13d, nuclease-dead (Eubacterium siraeum, UniProt B0MS50, R295A;H300A;R849A;H854A).
T1 sequence: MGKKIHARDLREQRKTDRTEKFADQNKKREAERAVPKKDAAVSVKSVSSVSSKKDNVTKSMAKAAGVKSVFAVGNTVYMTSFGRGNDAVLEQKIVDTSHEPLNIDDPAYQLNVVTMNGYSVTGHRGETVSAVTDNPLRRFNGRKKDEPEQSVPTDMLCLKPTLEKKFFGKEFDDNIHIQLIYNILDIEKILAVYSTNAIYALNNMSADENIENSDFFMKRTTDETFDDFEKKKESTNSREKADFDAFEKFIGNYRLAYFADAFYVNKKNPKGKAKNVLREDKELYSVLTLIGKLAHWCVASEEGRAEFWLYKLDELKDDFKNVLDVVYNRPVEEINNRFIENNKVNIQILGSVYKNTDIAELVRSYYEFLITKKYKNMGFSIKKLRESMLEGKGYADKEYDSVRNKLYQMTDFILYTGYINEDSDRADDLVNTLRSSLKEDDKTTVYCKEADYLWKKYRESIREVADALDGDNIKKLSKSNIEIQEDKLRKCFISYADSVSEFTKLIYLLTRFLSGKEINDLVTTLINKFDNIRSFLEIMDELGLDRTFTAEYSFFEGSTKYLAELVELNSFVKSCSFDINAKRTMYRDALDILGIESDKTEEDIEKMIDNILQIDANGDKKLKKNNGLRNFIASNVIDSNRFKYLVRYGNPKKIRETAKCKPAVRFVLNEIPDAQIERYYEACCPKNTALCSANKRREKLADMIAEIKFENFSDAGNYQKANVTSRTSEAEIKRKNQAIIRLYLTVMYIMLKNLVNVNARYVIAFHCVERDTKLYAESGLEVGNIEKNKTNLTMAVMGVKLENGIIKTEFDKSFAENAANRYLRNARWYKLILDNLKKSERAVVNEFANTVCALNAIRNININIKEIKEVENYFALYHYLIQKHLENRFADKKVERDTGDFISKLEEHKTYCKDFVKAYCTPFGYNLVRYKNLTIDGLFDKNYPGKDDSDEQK
Description: crRNA (strand 1, pre-loaded); Mg2+; 40 mM Tris-HCl pH 7.5, 150 mM NaCl, 6 mM MgCl2, 1 mM DTT, 0.1% Tween-20, 0.2 mg/ml BSA; 25 C; 10 min per concentration, then washed. To be noted: tags: His6-TwinStrep-SUMO cleaved; N-terminal SNAP kept (SNAP-Surface 488); label: 3' end held by stalled T7 RNA polymerase.
Turning to B1, the Kd was found to be 12 ± 0.6 nM.

In the case of B2, the Kd was determined as 52 ± 4 nM.

Regarding B3, the Kd turned out to be 9.1 ± 0.4 nM.

For B4, the Kd was found to be 9.7 ± 1.9 nM.

For the molecule B5, binding was characterised by a dissociation constant (Kd) of 10.5 ± 2.3 nM.

B6 had a Kd of 8.5 ± 1 nM.

Take B7: the Kd is 8.9 ± 1 nM.

As to B8, the Kd was determined as 14.2 ± 2.2 nM.

For the molecule B9, the Kd stood at 7.1 ± 1.6 nM.

Consider B10, for which the Kd was determined as 10 ± 1.1 nM.

As for B11, the Kd is 2.05 ± 0.35 nM. Compared with the last molecule, the Kd is about 4.9-fold lower.

B12 had a Kd of 8.9 ± 1.1 nM.

On to B13, for which the Kd turned out to be 10.2 ± 1.6 nM.

Take B14: the Kd was 4.3 ± 0.7 nM. This Kd lies about 2.4-fold lower than the previous one.

On to B15, for which binding was put at a Kd of 12.5 ± 0.9 nM.

Take B16: binding was characterised by a dissociation constant (Kd) of 5.1 ± 0.7 nM.

B17 displayed a Kd of 7.1 ± 1 nM.

Consider B18, for which the Kd worked out at 9.4 ± 0.9 nM.

B19: the Kd turned out to be 9.9 ± 0.8 nM.

B20 registered a Kd of 2.32 ± 0.23 nM.

For the molecule B21, binding was characterised by a dissociation constant (Kd) of 15 ± 4 nM.

Regarding B22, the Kd turned out to be 8.7 ± 1.7 nM. This Kd is about 1.7-fold lower than that of the molecule before.

Consider B23, for which the Kd came out at 5.3 ± 0.6 nM. This Kd is about 1.6-fold lower than that of the molecule before.

With B24, the Kd amounted to 5 ± 0.8 nM.

Turning to B25, the Kd came to 3.4 ± 0.6 nM.

B26 displayed a Kd of 1.99 ± 0.13 nM.

On to B27, for which the Kd was 22 ± 6 nM.

B28 returned a Kd of 9.4 ± 1 nM.

B29 displayed a Kd of 14.5 ± 2.8 nM.

In the case of B30, the Kd worked out at 6.2 ± 0.6 nM. This Kd lies about 2.3-fold lower than the previous one.

For the molecule B31, the Kd worked out at 8.9 ± 1.3 nM.

Regarding B32, the affinity, expressed as Kd, was 4.4 ± 0.7 nM.

Consider B33, for which the dissociation constant (Kd) was 10.6 ± 1.7 nM.

As to B34, the affinity, expressed as Kd, was 7.1 ± 1 nM. This Kd and that of the molecule before are within 1.5-fold of each other.

Turning to B35, the affinity, expressed as Kd, was 6.7 ± 0.9 nM.

The molecule B36 came in with a Kd of 8.7 ± 1 nM.

By Kd is commonly meant the concentration at which binding is half-saturated. Read a low Kd as tighter binding.
